Results taken from PMC8754202 (Journal of Virology, 2021).

Tests used:
[1] = target: N-terminal peptidase domain of wild-type human ACE2 (residues Met1-Asp615) (human, UniProt Q9BYF1 18-615); experiment: SPR
[2] = target: N-terminal peptidase domain of human ACE2 [change] variant (residues Met1-Asp615) (human, UniProt Q9BYF1 18-615); experiment: SPR

Binder	Kd [1]	Kd [2]
HCoV-NL63 receptor-binding domain (residues Gln481-Ile616) (domain or fragment) QHTDINFTATASFGGSCYVCKPHQVNISLNGNTSVCVRTSHFSIRYIYNRVKSGSPGDSSWHIYLKSGTCPFSFSKLNNFQKFKTICFSTVEVPGSCNFPLEATWHYTSYTIVGALYVTWSEGNSITGVPYPVSGI	575 nM	2610 nM
SARS-CoV receptor-binding domain (residues Arg306-Leu515) (domain or fragment) not shown	511 nM	
